Measured values as given in patent publication US20230235011A1 (BEIJING BEYOND BIOTECHNOLOGY, published 2023).

T1: trop-2 protein (UniProt P09758 27-274, limits assumed)
T1 construct: Bought antigen, used as the SPR analyte; The printed catalogue number is doubtful
T1 sequence (looked up): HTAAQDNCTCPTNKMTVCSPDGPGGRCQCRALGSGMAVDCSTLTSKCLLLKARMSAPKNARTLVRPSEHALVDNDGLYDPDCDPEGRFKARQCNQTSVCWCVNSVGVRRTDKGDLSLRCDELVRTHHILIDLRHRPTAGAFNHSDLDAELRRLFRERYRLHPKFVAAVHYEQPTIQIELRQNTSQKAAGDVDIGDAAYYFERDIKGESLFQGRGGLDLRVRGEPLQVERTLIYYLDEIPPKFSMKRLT


Columns and labels:
trop-2 protein = molecular target: T1, trop-2 protein; assay: SPR (Biacore T100, 25 C); binder captured on anti-human IgG CM5 chip, trop-2 protein as analyte
GPC-3 protein = molecular target: T2, GPC-3 protein (UniProt P51654 25-559, limits assumed); assay: SPR (Biacore T100, 25 C); binder captured on anti-human IgG CM5 chip, GPC-3 protein as analyte
T2 construct: Bought antigen, used as the SPR analyte; also called Glypican-3
T2 sequence (P51654 25-559 limits assumed): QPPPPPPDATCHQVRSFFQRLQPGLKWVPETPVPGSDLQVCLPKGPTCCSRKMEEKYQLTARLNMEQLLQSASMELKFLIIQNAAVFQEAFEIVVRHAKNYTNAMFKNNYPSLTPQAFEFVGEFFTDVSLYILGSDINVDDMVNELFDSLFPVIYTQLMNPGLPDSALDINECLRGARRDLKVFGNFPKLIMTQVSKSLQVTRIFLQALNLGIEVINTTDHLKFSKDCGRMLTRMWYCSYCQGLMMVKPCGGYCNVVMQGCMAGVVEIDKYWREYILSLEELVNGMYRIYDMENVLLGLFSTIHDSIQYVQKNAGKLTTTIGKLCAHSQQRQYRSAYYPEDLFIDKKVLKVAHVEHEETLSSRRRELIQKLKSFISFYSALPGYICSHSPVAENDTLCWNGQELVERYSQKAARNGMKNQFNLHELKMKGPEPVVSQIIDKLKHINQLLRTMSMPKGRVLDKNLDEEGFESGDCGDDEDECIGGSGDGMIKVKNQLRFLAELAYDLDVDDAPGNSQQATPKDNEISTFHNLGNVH

Kd (trop-2 protein) [nM] | koff (trop-2 protein) [s⁻¹] | kon (trop-2 protein) [M⁻¹ s⁻¹] | Kd (GPC-3 protein) [nM] | koff (GPC-3 protein) [s⁻¹] | kon (GPC-3 protein) [M⁻¹ s⁻¹] | Binder
0.857 | 4.82e-05 | 56300 |  |  |  | anti-trop-2 antibody BY43 (sacituzumab) (antibody, human IgG1, kappa, V domains shown, Made in-house from INN 10418; also called control antibody BY43) VH: QVQLQQSGSELKKPGASVKVSCKASGYTFTNYGMNWVKQAPGQGLKWMGWINTYTGEPTYTDDFKGRFAFSLDTSVSTAYLQISSLKADDTAVYFCARGGFGSSYWYFDVWGQGSLVTVSS VL: DIQLTQSPSSLSASVGDRVSITCKASQDVSIAVAWYQQKPGKAPKLLIYSASYRYTGVPDRFSGSGSGTDFTLTISSLQPEDFAVYYCQQHYITPLTFGAGTKVEIKR
 |  |  | 2.08 | 7.57e-05 | 36400 | anti-GPC-3 antibody BY20.2 (codrituzumab) (antibody, human IgG1, kappa, V domains shown, Made in-house from INN 9759; If the listing has 19, the mature range is 20-238; also called control antibody BY20.2) VH: QVQLVQSGAEVKKPGASVKVSCKASGYTFTDYEMHWVRQAPGQGLEWMGALDPKTGDTAYSQKFKGRVTLTADKSTSTAYMELSSLTSEDTAVYYCTRFYSYTYWGQGTLVTVSS VL: DVVMTQSPLSLPVTPGEPASISCRSSQSLVHSNRNTYLHWYLQKPGQSPQLLIYKVSNRFSGVPDRFSGSGSGTDFTLKISRVEAEDVGVYYCSQNTHVPPTFGQGTKLEIKR
